A short description of data set [1]: Luciferase activity (brightness) of LuxSit-i variants. It is filed as biochemical.
Data set [2] is described as follows: Stability of LuxSit-i variants (yeast display protease resistance, static light scattering). It is filed as physicochemical. Particulars: for Stability improvement: relative to LuxSit-i. Here is the method:
In certain aspects, these polypeptides have improved stability at high temperatures as compared to LuxSit-i. For example, these polypeptides are stable at higher temperatures as compared to LuxSit-i. Stability may be measured by enzymatic activity and/or protein misfolding measured over a period of time. In certain embodiments, stability may be measured using static light scattering (SLS).
A single saturation mutagenesis (SSM) was performed to evaluate by yeast display the effect of single mutations in the stability of LuxSit-i (SEQ ID NO:1). The SSM library was transformed into electrocompetent cells of the strain EBY100. Twenty million cells were labeled with anti-myc FITC antibody in order to detect protein expression on the yeast surface by measuring fluorescence emission. Cells were sorted using a Sony SH800 cell sorter and those showing protein expression (FITC signal) were collected and grown. DNA was extracted from the sorted cells using conventional DNA extraction conventional methods. The DNA library was sequenced using Nanopore technology. Single amino acid substitutions that increase protein stability are enriched after sorting.
(§1) Single saturation mutagenesis (SSM) was performed to evaluate (by yeast display) the effect of single mutations in the stability of LuxSit-i-i. The SSM library was transformed into electrocompetent cells of the strain EBY100. Twenty million cells were labeled with an anti-myc FITC antibody to detect protein expression on the yeast surface by measuring the emission of fluorescence by FITC. Yeast were incubated with a mixture of 3.5 uM trypsin and 1.4 uM chymotrypsin (1/729 dilution of the stock solution) at 25° C. for 15 min. Cells were sorted using a Sony SH800 cell sorter and those showing protein expression (FITC signal) after protease incubation were collected and grown. DNA was extracted from the sorted cells using conventional DNA extraction conventional methods. The DNA library was sequenced using Nanopore technology. Single amino acid substitutions that increase protein stability are enriched after sorting.
as §1, with “LuxSit-i.” for “LuxSit-i-i.”, “antibody in order” for “antibody”, “10” for “3.5”, “4” for “1.4”, “(1/243” for “(1/729”
as §1, with “LuxSit-i.” for “LuxSit-i-i.”, “antibody in order” for “antibody”, “15” for “3.5”, “6” for “1.4”, “(1/162” for “(1/729”, “sorting. […]” for “sorting.”

The nature of data set [3]: Luciferase activity (brightness) of LuxSit-i variants. Particulars: relative to LuxSit-i. It counts as biochemical. Here is the method:
SSM was performed to evaluate the effect of single mutations on the luciferase activity of LuxSit-i. FIG. 3 graphically presents the mutation frequency at the positions found in the SSM as beneficial for increasing luciferase activity.
FIG. 4A provides data for luciferase activity for MBIO-148, MBIO-158 and Luxsit-i. MBIO-148, MBIO-158, and Luxsit-i were serially diluted starting from a final in-well concentration of 10,000 pM. Each dilution was combined with Diphenylterazine (DTZ) to a final in-well concentration of […]. Points shown are from the initial reading once the plate read was started.
FIG. 4B provides data for luciferase activity for MBIO-148, MBIO-301, MBIO-302, and LuxSit-i. MBIO-148, MBIO-301, MBIO-302, and Luxsit-i were serially diluted starting from a final in-well concentration of 500 pM. Each dilution was combined with DTZ to a final in-well concentration of 10 μM. Points shown are from the initial reading once the plate read was started.

In a further data set the target is T1, LgLux_4039.
T1 chain: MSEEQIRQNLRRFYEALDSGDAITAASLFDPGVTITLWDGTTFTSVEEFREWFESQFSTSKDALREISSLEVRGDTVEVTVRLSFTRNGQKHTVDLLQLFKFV
In words: cell-based or functional assay.

[4] abbreviates: Table 3, combined substitutions.
Setting [5] is: among variants derived from MBIO-2859, Table 13.

Changes are numbered by the printed parent chain. Names and notes keep the numbering of the source.

B1: MBIO-301: LuxSit-i variant F9N, Q64L, A85F, H87R, H99L, T108D, H113Y, W100F; SEQ ID NO 104 (protein)
chain: MSEEQIRQNLRRFYEALDSGDADTAASLFHPGVTIHLWDGVTFTSREEFREWFERLFSTSKDALREIKSLEVRGDTVEVHVQLHFTRNGQKHTVDLTHLFHFRGNRVDEVRVYINPTG
As for B1, the luciferase activity entry in data set [1] (among mutants from combinatorial library, Table 10) was “highest”.

B2: MBIO-152: LuxSit-i variant F9S_A85F_H87L_Q64W, SEQ ID NO: 6 (protein)
chain: B1 chain with N9S, L64W, R87L, L99H, F100W, D108T, Y113H
For B2, in data set [2] (setting [4]), the Stability improvement entry was “Slight improvement”. In addition, the Brightness improvement result in data set [3] (setting [4]) was “Slight increase”.

B3: MBIO-157: LuxSit-i variant Q64W, SEQ ID NO 47 (protein)
chain: B1 chain with N9F, L64W, F85A, R87H, L99H, F100W, D108T, Y113H
Turning to B3, the Stability improvement result in data set [2] (Table 2, single substitutions) is given as “No change”. Moreover, the Brightness improvement entry in data set [3] (Table 2, single substitutions) is recorded as “Slight increase”.

B4: MBIO-155: LuxSit-i variant F9V_A85F_H87L_Q64W, SEQ ID NO: 4 (protein)
chain: B1 chain with N9V, L64W, R87L, L99H, F100W, D108T, Y113H
Regarding B4, in data set [2] (setting [4]), the Stability improvement entry is listed as “Slight improvement”. For the same molecule, in data set [3] (setting [4]), the Brightness improvement entry is recorded as “Slight increase”.

B5: MBIO-151: LuxSit-i variant F9S_A85F_H87L, SEQ ID NO: 7 (protein)
chain: B1 chain with N9S, L64Q, R87L, L99H, F100W, D108T, Y113H
Regarding B5, the Stability improvement entry in data set [2] (setting [4]) was “No change”. Besides, the Brightness improvement entry in data set [3] (setting [4]) is “No change”.

B6: MBIO-149: LuxSit-i variant A85F, SEQ ID NO 82 (protein)
chain: B1 chain with N9F, L64Q, R87H, L99H, F100W, D108T, Y113H
As for B6, the Stability improvement entry in data set [2] (Table 2, single substitutions) is “No change”. The Brightness improvement entry in data set [3] (Table 2, single substitutions) is “Slight increase”.

B7: MBIO-148: LuxSit-i variant W100F_A85F_H87L_Q64W, SEQ ID NO: 2600 (SEQ ID NO 2 in Table 4) (protein)
chain: B1 chain with N9F, L64W, R87L, L99H, D108T, Y113H
As to B7, the Stability improvement entry in data set [2] (setting [4]) is reported as “Monomeric”. Besides, the Brightness improvement entry in data set [3] (setting [4]) was “Increase”.

B8: MBIO-150: LuxSit-i variant F9S, SEQ ID NO 73 (protein)
chain: B1 chain with N9S, L64Q, F85A, R87H, L99H, F100W, D108T, Y113H
For the molecule B8, the Stability improvement result in data set [2] (Table 2, single substitutions) is “Monomeric”. Besides, the Brightness improvement result in data set [3] (Table 2, single substitutions) is listed as “No change”.

B9: MBIO-158: LuxSit-i variant W100F (protein)
chain: B1 chain with N9F, L64Q, F85A, R87H, L99H, D108T, Y113H
Regarding B9, the Stability improvement entry in data set [2] (Table 2, single substitutions) is on record as “Monomeric”. Also, the Brightness improvement entry in data set [3] (Table 2, single substitutions) was “Slight increase”.

B10: MBIO-156: LuxSit-i variant H87L, SEQ ID NO 88 (protein)
chain: B1 chain with N9F, L64Q, F85A, R87L, L99H, F100W, D108T, Y113H
As to B10, the Stability improvement entry in data set [2] (Table 2, single substitutions) is on record as “No change”. In addition, the Brightness improvement result in data set [3] (Table 2, single substitutions) was “Slight increase”.

B11: MBIO-147: LuxSit-i variant W100F_A85F_H87L, SEQ ID NO: 3 (protein)
chain: B1 chain with N9F, L64Q, R87L, L99H, D108T, Y113H
On to B11, for which, in data set [2] (setting [4]), the Stability improvement entry was “Monomeric”. Also, the Brightness improvement entry in data set [3] (setting [4]) is on record as “Increase”.

B12: MBIO-2466: MBIO-301 variant, H30D H36T H80T H84S H92S H98Q H101R; SEQ ID NO 2703 (protein)
chain: B1 chain with H30D, H36T, H80T, H84S, H92S, H98Q, H101R
B12: the “luciferase activity, higher than MBIO-301” value in data set [1] (relative to MBIO-301) is reported as “more than 5 ×”.

B13: MBIO-154: LuxSit-i variant F9V_A85F_H87L, SEQ ID NO: 5 (protein)
chain: B1 chain with N9V, L64Q, R87L, L99H, F100W, D108T, Y113H
With B13, in data set [2] (setting [4]), the Stability improvement entry is “Slight improvement”. The Brightness improvement entry in data set [3] (setting [4]) is recorded as “Slight increase”.

B14: MBIO-3073: MBIO-2466 variant (Table 12), SEQ ID NO:2711 (protein)
chain: MSEEQIRQNLRRFYEALDSGDADTAASLFDPGVTITLWDGTTFTSVEEFREWFERLFSTSKDALREIKSLEVRGDTVEVTVQLSFTRNGQKHTVDLLQLFKFVGNRVVDVRVYTNPTG
In the case of B14, the luciferase activity result in data set [1] (among variants derived from MBIO-2466, Table 12) is reported as “highest”.

B15: MBIO-4039: MBIO-2859 variant (Table 13), SEQ ID NO: 2730 (protein)
chain: B14 chain with D23I, R55S, L56Q, K68S, Q82R, D109A, T114V
Regarding B15, the luciferase activity result in data set [1] (setting [5]) is listed as “highest”. In addition, the stability result in data set [2] (setting [5]) is “most stable”.

B16: MBIO-4039_No Lysine Residues: LuxSit-i variant that lacks lysine residues, SEQ ID NO: 2737 (protein)
chain: MSGMSEEQIRQNLRRFYEALDSGDAITAASLFDPGVTITLWDGTTFTSVEEFREWFESQFSTSRDALREISSLEVRGDTVEVTVRLSFTRNGQRHTVDLLQLFRFVGNRVVAVRVYVNPT
As for B16, the “activity of variant that lacks lysine residues” value in data set [1] (all lysine residues substituted) was “retains activity”.
On to RVVIVRVYVNPTG [MBIO-5343], for which, in the data set with LgLux_4039, the “Baseline Signal (Normalized by expression)” value came to 20200 and the “Fold change upon Rap addition” value worked out at 1.8 fold.
Taken in the same sequence, the figures for HVVAVRVYVNPTG [MBIO-5344] were 23900 and 2 fold.

The values above are taken from US20260250737A1, “Engineered Luciferases and Luciferin Substrates” (Monod Bio, Inc., priority 2023, published 2026).
